Experimental data published in PMC11014909 (2024).

B1: GST-Pif1N(56–77) [S. cerevisiae] / Rfa1N(1–132)-4myc [S. cerevisiae] (parent complex)
chain 1: KHPSILSKEDLDLLSDSDDWEE
chain 2: MSSVQLSRGDFHSIFTNKQRYDNPTGGVYQVYNTRKSDGANSNRKNLIMISDGIYHMKALLRNQAASKFQSMELQRGDIIRVIIAEPAIVRERKKYVLLVDDFELVQSRADMVNQTSTFLDNYFSEHPNETL

Variants of: B1
Assay: GST pull-down followed by myc-specific western blotting, quantified; n = 3 biological replicates; parent: 0.53; read off a plot

response	Variant
~0.077 % of input	chain 1 KHPSILSKEDAAAASDSDDWEE [chain 1 L11A, chain 1 D12A, chain 1 L13A, chain 1 L14A]
